{"source": "patent US5571894", "about": "“Recombinant antibodies specific for a growth factor receptor” (Ciba-Geigy Corporation, dated 1996)", "key": {"[1]": {"molecular_target": "185 kD c-erbB-2 protein from SKBR3 cell lysates (human, UniProt P04626)", "assay": "immunoprecipitation from SKBR3 extract, blot detected with antiserum 21N"}, "human c-erbB-2 protein [2]": {"molecular_target": "T1, human c-erbB-2 protein (human, UniProt P04626)", "assay": "immunofluorescent staining of fixed HC11 cells transfected with human c-erbB-2 (clone R1#11), non-transfected HC11 as control; screen of hybridoma supernatants"}, "human c-erbB-2 protein [3]": {"molecular_target": "T1, human c-erbB-2 protein", "assay": "flow cytometry on SKBR3 cells"}}, "data": [{"binder": "mouse monoclonal antibody FRP5 (antibody, V domains shown) VH: QVQLQQSGPELKKPGETVKISCKASGYPFTNYGMNWVKQAPGQGLKWMGWINTSTGESTFADDFKGRFDFSLETSANTAYLQINNLKSEDMATYFCARWEVYHGYVPYWGQGTTVTVSS VL: DIQLTQSHKFLSTSVGDRVSITCKASQDVYNAVAWYQQKPGQSPKLLIYSASSRYTGVPSRFTGSGSGPDFTFTISSVQAEDLAVYFCQQHFRTPFTFGSGTKLEI", "values": [{"measurement": "binding result", "setting": "[1]", "value": "binds"}, {"measurement": "binding result", "setting": "human c-erbB-2 protein [2]", "value": "binds"}]}, {"binder": "mouse monoclonal antibody FWP51 (antibody, V domains shown) VH: QVQLQQSGAELVRPGTSVKLSCKASDYTFTSYWMNWVKQRPGQGLEWIGMIDPSDSETQYNQMFKDKAALTVDKSSNTAYMQLSSLTSEDSAVYYCAKGGASGDWYFDVWGQGTTVTVSS VL: DIQLTQSPSSLSASLGGEVTITCKASQDIKKYIAWYQHKPGKSPRLLIHYTSVLQPGIPSRFSGSGSGRDYSFSIHNLEPEDIATYYCLHYDYLYTFGGGTKLEI", "values": [{"measurement": "binding result", "setting": "human c-erbB-2 protein [3]", "value": "binds"}, {"measurement": "binding result", "setting": "[1]", "value": "binds"}]}]}
